The target in this test is HLA-A*02-presented PRAME-004 (SEQ ID NO:97). In words: cell-based or functional assay.

B1: TCR R17P1D7 (TCR, V domains shown)
V domain 1: QTVTQSQPEMSVQEAETVTLSCTYDTSESDYYLFWYKQPPSRQMILVIRQEAYKQQNATENRFSVNFQKAAKSFSLKISDSQLGDAAMYFCAYRWAQGGSEKLVFGKGTKLTVNP
V domain 2: DIYQTPRYLVIGTGKKITLECSQTMGHDKMYWYQQDPGMELHLIHYSYGVNSTEKGDLSSESTVSRIRTEHFPLTLESARPSHTSQYLCATELWSSGGTGELFFGEGSRLTVLE
As to B1, the “EC50 of IFNγ release from CD8+ T-cells with the TCR, T2 target cells loaded with PRAME-004 from 10 µM to 10 pM” value stood at 1.83 nM.

B2: TCR R16P1E8 (TCR, V domains shown)
V domain 1: QKEVEQDPGPLSVPEGAIVSLNCTYSNSAFQYFMWYRQYSRKGPELLMYTYSSGNKEDGRFTAQVDKSSKYISLFIRDSQPSDSATYLCAMSEAAGNKLTFGGGTRVLVKP
V domain 2: EAGVAQSPRYKIIEKRQSVAFWCNPISGHATLYWYQQILGQGPKLLIQFQNNGVVDDSQLPKDRFSAERLKGVDSTLKIQPAKLEDSAVYLCASSYTNQGEAFFGQGTRLTVVE
With B2, the “EC50 of IFNγ release from CD8+ T-cells with the TCR, T2 target cells loaded with PRAME-004 from 10 µM to 10 pM” value is roughly 1 µM.

The values are drawn from patent publication US20200123221A1 (IMMATICS BIOTECHNOLOGIES, published 2020).
